Reference: patent US20250154283A1 (published 2025)
Numbering of substitutions follows the chain as printed.

B1: 4029_Lib1_scFv (scFv)
scFv: QVQLVQSGAEVKKPGASVKVSCKVSGYPFTSSGIHWVRQAPGKGLEWMGGVIPLFGTANYAQKFQGRVTMTEDTSTDTAYMELSSLKSEDTAVYYCARIRVSSGWYRDYGMDVWGQGTTVTVSSSGGSTITSYNVYYTKLSSSGTDIQMTQSPSSVSASVGDRVTITCRASQSIGDFLAWYQQKPGKAPKLLIYDASHLQTGVPSRFSGSGSGTDFTLTISSLQPEDFANYYCQQTSTIPPTFGGGTKVEIK
notes: VH-linker-VL; not shown: C-terminal 3xFLAG and SV5 tags
B2: Lib1_P1_E9_scFv (scFv)
scFv: QVQLVQSGAEVKKPGASVKVSCKVSGYTFTSHIIHWVRQAPGKGLEWMGGMNPYSNKAIYAQKFQGRVTMTEDTSTDTAYMELSSLKSEDTAVYYCARDASDYGDYGYYYYYMDVWGKGTTVTVSSSGGSTITSYNVYYTKLSSSGTDIQMTQSPSSVSASVGDRVTITCRASQYIGNDLAWYQQKPGKAPKLLIYEASQRPSGVPSRFSGSGSGTDFTLTISSLQPEDFANYYCQQQYNYPLTFGGGTKVEIK
notes: as for B1
B3: Lib8_P4_D4_scFv (scFv)
scFv: QVQLVQSGAEVKKPGASVKVSCKVSGDTLSNYAIHWVRQAPGKGLEWMGGINPNAGTTIYAQKFQGRVTMTEDTSTDTAYMELSSLKSEDTAVYYCARDSSSWCPVGYYYYYMDVWGKGTTVTVSSSGGSTITSYNVYYTKLSSSGTDIQMTQSPSSVSASVGDRVTITCRASQSIGDFLAWYQQKPGKAPKLLIYDASHLQTGVPSRFSGSGSGTDFTLTISSLQPEDFANYYCQQTSTIPPTFGGGTKVEIK
notes: as for B1
B4: Lib1_P1_A1_scFv (scFv)
scFv: B3 scFv with C104S, P105Q, V106F
notes: as for B1
B5: 4166_Lib4_scFv (scFv)
scFv: QVQLQESGPGLVKPSQTLSLTCTVSGESFSGHFWSWIRQPPGKGLEWIGYISQSGRTDYNPSLKSRVTMSVDTSKNQFSLKVNSVTAADTAVYYCARTLPRIQLWSPRGAFDIWGQGTMVTVSSSGGSTITSYNVYYTKLSSSGTEIVMTQSPATLSLSPGERATLSCRASQSLGRSLAWYQQKPGQAPRLLIYDASHRATGIPARFSGSGSGTDFTLTISSLEPEDFAVYYCQQYVSYPLTFGGGTKVEIK
notes: as for B1
B6: Lib4_P2_B4_scFv (scFv)
scFv: QVQLQESGPGLVKPSQTLSLTCTVSGASLGDQYWSWIRQPPGKGLEWIGYIHPSGDFDYNPSLKSRVTMSVDTSKNQFSLKVNSVTAADTAVYYCARHYSSSWYGTWYFDLWGRGTLVTVSSSGGSTITSYNVYYTKLSSSGTEIVMTQSPATLSLSPGERATLSCRASQNIGTNLAWYQQKPGQAPRLLIYDASVRAAGIPARFSGSGSGTDFTLTISSLEPEDFAVYYCQQSLTTPLTFGGGTKVEIK
notes: as for B1
B7: Lib8_P4_C11_scFv (scFv)
scFv: B3 scFv
notes: as for B1
B8: 3964_Lib4_scFv (scFv)
scFv: QVQLQESGPGLVKPSQTLSLTCTVSGASISTHSWSWIRQPPGKGLEWIGYINPSGDIDYNPSLKSRVTMSVDTSKNQFSLKVNSVTAADTAVYYCARGRTGFDSSGFVVGAFDIWGQGTMVTVSSSGGSTITSYNVYYTKLSSSGTEIVMTQSPATLSLSPGERATLSCRASQNVNDNLAWYQQKPGQAPRLLIYDASTRPTGIPARFSGSGSGTDFTLTISSLEPEDFAVYYCQQYLTIPRTFGGGTKVEIK
notes: as for B1
B9: 3552_Lib8_scFv (scFv)
scFv: EVQLVESGGGLVQPGRSLRLSCAASEFTFGDYDMHWVRQAPGKGLEWVSAISSSGSNRDYADSVEGRFTISRDNAKNSLYLQMNSLRAEDTAVYYCARDAWFGDAFDIWGQGTMVTVSSSGGSTITSYNVYYTKLSSSGTDIQMTQSPSSLSASVGDRVTITCRASESVSSWLAWYQQKPGKAPKLLIYGASTLEGGVPSRFSGSGSGTDFTLTISSLQPEDVATYYCQQSYSFPDFGGGTKVEIK
notes: as for B1
B10: 2738_Lib1_scFv (scFv)
scFv: QVQLVQSGAEVKKPGASVKVSCKVSGYTLTDLPIHWVRQAPGKGLEWMGGINPFLGTTIYAQKFQGRVTMTEDTSTDTAYMELSSLKSEDTAVYYCARGVDMLATARDYYYMAIWGKGTTVTVSSSGGSTITSYNVYYTKLSSSGTDIQMTQSPSSVSASVGDRVTITCRASQSIGNDLAWYQQKPGKAPKLLIYGASMRATGVPSRFSGSGSGTDFTLTISSLQPEDFANYYCQQYASDPLTFGGGTKVEIK
notes: as for B1
B11: Lib4_P2_A1_scFv (scFv)
scFv: QVQLQESGPGLVKPSQTLSLTCTVSGASFGDNYWSWIRQPPGKGLEWIGYIDTSGSSDYNPSLKSRVTMSVDTSKNQFSLKVNSVTAADTAVYYCARVSWGYYAMDVWGQGTTVTVSSSGGSTITSYNVYYTKLSSSGTEIVMTQSPATLSLSPGERATLSCRASQGISGRLAWYQQKPGQAPRLLIYDVSTRATGIPARFSGSGSGTDFTLTISSLEPEDFAVYYCQQYDTSAPLTFGGGTKVEIK
notes: as for B1
B12: 189_Lib4_scFv (scFv)
scFv: QVQLQESGPGLVKPSQTLSLTCTVSGVTFSSYGWSWIRQPPGKGLEWIGYVDTSGSTDYNPSLKSRVTMSVDTSKNQFSLKVNSVTAADTAVYYCARTTYYYDSSGFARGWFDPWGQGTLVTVSSSGGSTITSYNVYYTKLSSSGTEIVMTQSPATLSLSPGERATLSCRASQSVPSSHLAWYQQKPGQAPRLLIYDATNRAAGIPARFSGSGSGTDFTLTISSLEPEDFAVYYCQQYDNWPSPSFGGGTKVEIK
notes: as for B1
B13: Lib6_P3_B9_scFv (scFv)
scFv: EVQLVQSGAEVKKPGASVKVSCKASGDTFSSHVISWVRQAPGQGLEWMGGINPRTGTTIYAQKLQGRGTMTTDPSTSTAYMELRSLRSDDTAVYYCARTRPWAGLDVWGQGTTVTVSSSGGSTITSYNVYYTKLSSSGTESALTQPASVSGSPGQSITISCTGTNIEYKGVSWYQQHPGKAPKLMIYGVDKRPSGVSNRFSGSKSGNTASLTISGLQAEDEADYYCQAWGTSTAIFGGGTKLTVL
notes: as for B1
B14: Lib6_P3_A1_scFv (scFv)
scFv: B3 scFv
notes: as for B1
B15: Lib4_P2_A3_scFv (scFv)
scFv: QVQLQESGPGLVKPSQTLSLTCTVSGVSLSTSDYSWSWIRQPPGKGLEWIGYISPPGRSDYNPSLKSRVTMSVDTSKNQFSLKVNSVTAADTAVYYCARHSSSGWYSTYDFDSWGQGTMVTVSSSGGSTITSYNVYYTKLSSSGTEIVMTQSPATLSLSPGERATLSCRASQNIHSNLAWYQQKPGQAPRLLIYGATTRATGIPARFSGSGSGTDFTLTISSLEPEDFAVYYCQQSYTTPLTFGGGTKVEIK
notes: as for B1
B16: 487_Lib1_scFv (scFv)
scFv: QVQLVQSGAEVKKPGASVKVSCKVSGYTFTSHIIHWVRQAPGKGLEWMGGMNPYSNKAIYAQKFQGRVTMTEDTSTDTAYMELSSLKSEDTAVYYCARDASDYGDYGYYYYYMDVWGKGTTVTVSSSGGSTITSYNVYYTKLSSSGTDIQMTQSPSSVSASVGDRVTITCRASQSIGDFLAWYQQKPGKAPKLLIYDASHLQTGVPSRFSGSGSGTDFTLTISSLQPEDFANYYCQQTSTIPPTFGGGTKVEIK
notes: as for B1
B17: Lib6_P3_E10_scFv (scFv)
scFv: B3 scFv
notes: as for B1

Assays:
[1] = molecular target: T1, biotinylated human VWF cysteine knot (CK) domain construct (human, UniProt P04275 2724-2813, biotinylated in vitro (BirA) on the biotinylation tag; one N-glycan); test: SPR, scFv captured via anti-SV5, CK domain injected, pH 5.5, apparent Kd;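 further: scFvs from crude yeast supernatants captured on chip-bound anti-SV5 antibody, Kd computed as koff divided by kon, dimeric CK construct likely makes affinity appear higher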
T1 construct: Expressed in HEK293 EBNA cells; disulfide-linked homodimer; also called human VWF CK; human VWF CK domain; not shown: in vitro biotinylation tag, HRV-3C site and 3 VWF residues before the CK domain

[2] = molecular target: T1, biotinylated human VWF cysteine knot …; test: SPR, scFv captured via anti-SV5, CK domain injected, pH 7.4, apparent Kd;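 further: scFvs from crude yeast supernatants printed on an amine-coupled anti-SV5 lawn, Kd computed as koff over kon, likely overestimating affinity because the CK construct is dimeric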
Description: Briefly, a sensor chip was activated and coupled with an anti-SV5 mouse monoclonal antibody using amine coupling. The soluble scFvs in crude yeast supernatants were printed on the anti-SV5 lawn. […] From the measured association (kₒₙ) and dissociation (koff) rate constants, an apparent equilibrium dissociation constant (Kd=koff/kₒₙ) was estimated. Due to the dimeric state of the CK construct and consequent possibility for simultaneous binding of captured scFv to both monomers in the CK dimer, the SPR setup was expected to overestimate the binding affinity.

[3] = molecular target: T2, biotinylated cynomolgus monkey VWF cysteine knot (CK) domain construct (cynomolgus monkey, biotinylated in vitro (BirA) on the biotinylation tag; one N-glycan); test: as above
T2 construct: Expressed in HEK293 EBNA cells; disulfide-linked homodimer; also called cyno VWF CK; cyno VWF CK domain; not shown: in vitro biotinylation tag, HRV-3C site and 3 VWF residues before the CK domain
T2 chain: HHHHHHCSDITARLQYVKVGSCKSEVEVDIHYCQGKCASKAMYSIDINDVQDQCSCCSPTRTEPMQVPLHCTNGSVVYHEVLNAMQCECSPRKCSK

Binder | Kd [1] [nM] | Kd [2] [nM] | Kd [3] [nM]
B1 | 2.58 | 4.27 | 4.67
B2 | 0.639 | 0.915 | 0.536
B3 | 0.397 | 0.917 | 0.206
B4 | 0.202 | 1.38 | 1.08
B5 | 0.567 | 0.958 | 0.38
B6 | 0.225 | 1.07 | 0.096
B7 | 0.617 | 1.08 | 0.155
B8 | 0.737 | 1.13 | 0.689
B9 | 0.412 | 1.16 | 0.018
B10 | 0.519 | 1.18 | 0.922
B11 | 0.235 | 1.2 | 0.031
B12 | 0.269 | 1.37 | 0.441
B13 | 1.22 | 1.41 | 1.03
B14 | 1.32 | 1.41 | 0.017
B15 | 1.93 | 1.48 | 0.387
B16 | 0.829 | 1.5 | 1.51
B17 | 0.659 | 1.72 | 1.96
